Holding throughout (conditions): both partners purified
For experiment [1], the target named is T1, full length human importin β (KPNB1), expressed from pET30a-WT Importin β (pKW485) (human, UniProt Q14974 1-876).
T1 construct: importin β (KPNB1), human, wild type, full length; also called unlabeled importin β
The experiment can be described thus: FRET or BRET; displacement of importin β from the Rango FRET sensor in solution: 20 nM Rango + 50 nM importin β in TBS pH 7.4, 0.005% Tween-20, increasing concentrations of DPR 10-mers or ZZ-RanQ69L-GTP; acceptor/donor emission ratio, fit to one-site binding model.

Experiment [2] concerns the target T2, biotinylated WT importin β-Avitag (pKW1982; pK1099) (human, UniProt Q14974 1-876, biotin on the Avitag (co-expressed biotin ligase, 100 µM D-biotin)).
T2 construct: importin β (KPNB1), human, wild type; called full-length in the results of the bead halo assay; Immobilised on neutravidin beads by the biotinylated Avitag; also called biotinylated importin β; full-length importin β-coated beads; source: E. coli BL21DE3 co-transfected with pAC-biotin ligase, purified (Ni-NTA)
The experiment can be described thus: bead halo assay; biotinylated bait (importin β-Avitag or BSA) on neutravidin beads; fluorescent prey (AF488-DPR 200 nM, Rango) in binding buffer (20 mM HEPES pH 7.4, 150 mM KOAc, 2 mM Mg(OAc)2, 1 mM DTT, 0.1% Tween-20) with EHBN; room temperature, at least 30 min; confocal rim vs. background ratio.

The target of experiment [3] is T3, GST-tagged S. cerevisiae Nup100(1-307) (S. cerevisiae, UniProt Q02629 1-307).
T3 construct: Nup100, S. cerevisiae, residues 1-307 (GLFG domain fragment); Bait on glutathione beads; also called FG-domains of Nup100; Nup100 fragments; source: E. coli T7 Shuffle, purified (glutathione-sepharose)
Put plainly: bead halo assay; GST-fusion yeast FG- and GLFG-domain baits on glutathione beads; AF488-labeled DPRs in binding buffer, without added importin β; rim vs. background ratio against the Nup116 F>A mutant.

Experiment [4] deals with T4, GST-tagged S. cerevisiae Nup100(1-610) (S. cerevisiae, UniProt Q02629 1-610).
T4 construct: Nup100, S. cerevisiae, residues 1-610 (GLFG domain fragment); Bait on glutathione beads; also called FG-domains of Nup100; Nup100 fragments; source: E. coli T7 Shuffle, purified (glutathione-sepharose)
Described as above.

No end group written: not given here.

T2 sequence (Q14974 whole entry): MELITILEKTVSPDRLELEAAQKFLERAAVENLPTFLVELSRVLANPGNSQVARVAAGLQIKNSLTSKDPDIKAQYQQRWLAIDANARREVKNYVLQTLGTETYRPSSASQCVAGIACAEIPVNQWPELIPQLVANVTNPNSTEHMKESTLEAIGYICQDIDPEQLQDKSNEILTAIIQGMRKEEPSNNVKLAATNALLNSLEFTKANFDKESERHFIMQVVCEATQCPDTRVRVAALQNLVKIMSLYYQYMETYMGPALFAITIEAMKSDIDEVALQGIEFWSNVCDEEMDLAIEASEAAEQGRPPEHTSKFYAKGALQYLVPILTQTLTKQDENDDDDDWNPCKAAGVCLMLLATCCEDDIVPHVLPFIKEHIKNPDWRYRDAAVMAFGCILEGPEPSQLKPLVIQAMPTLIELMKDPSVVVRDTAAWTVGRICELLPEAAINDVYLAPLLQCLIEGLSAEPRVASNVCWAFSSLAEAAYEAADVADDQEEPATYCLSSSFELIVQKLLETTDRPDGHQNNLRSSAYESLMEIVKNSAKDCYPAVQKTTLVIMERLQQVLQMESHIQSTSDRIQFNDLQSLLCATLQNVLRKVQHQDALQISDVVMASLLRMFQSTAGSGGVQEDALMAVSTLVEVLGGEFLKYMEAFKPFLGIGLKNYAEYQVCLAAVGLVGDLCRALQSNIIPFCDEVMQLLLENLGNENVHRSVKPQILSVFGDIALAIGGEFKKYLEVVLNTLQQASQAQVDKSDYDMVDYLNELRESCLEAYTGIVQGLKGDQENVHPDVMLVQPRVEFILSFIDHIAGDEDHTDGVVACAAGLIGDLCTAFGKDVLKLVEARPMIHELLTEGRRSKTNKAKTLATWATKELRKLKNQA
T1 sequence (Q14974 whole entry): as above
T3 sequence (Q02629 1-307): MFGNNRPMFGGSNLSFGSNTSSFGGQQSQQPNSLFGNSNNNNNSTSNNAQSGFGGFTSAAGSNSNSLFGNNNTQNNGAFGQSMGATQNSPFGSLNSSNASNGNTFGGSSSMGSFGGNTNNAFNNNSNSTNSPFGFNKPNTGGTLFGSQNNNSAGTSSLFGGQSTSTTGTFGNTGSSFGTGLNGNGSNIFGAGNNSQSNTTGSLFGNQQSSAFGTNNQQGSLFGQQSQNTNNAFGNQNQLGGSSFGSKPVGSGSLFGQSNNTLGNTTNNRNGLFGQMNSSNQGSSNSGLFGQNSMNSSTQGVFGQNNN
T4 sequence (Q02629 1-610): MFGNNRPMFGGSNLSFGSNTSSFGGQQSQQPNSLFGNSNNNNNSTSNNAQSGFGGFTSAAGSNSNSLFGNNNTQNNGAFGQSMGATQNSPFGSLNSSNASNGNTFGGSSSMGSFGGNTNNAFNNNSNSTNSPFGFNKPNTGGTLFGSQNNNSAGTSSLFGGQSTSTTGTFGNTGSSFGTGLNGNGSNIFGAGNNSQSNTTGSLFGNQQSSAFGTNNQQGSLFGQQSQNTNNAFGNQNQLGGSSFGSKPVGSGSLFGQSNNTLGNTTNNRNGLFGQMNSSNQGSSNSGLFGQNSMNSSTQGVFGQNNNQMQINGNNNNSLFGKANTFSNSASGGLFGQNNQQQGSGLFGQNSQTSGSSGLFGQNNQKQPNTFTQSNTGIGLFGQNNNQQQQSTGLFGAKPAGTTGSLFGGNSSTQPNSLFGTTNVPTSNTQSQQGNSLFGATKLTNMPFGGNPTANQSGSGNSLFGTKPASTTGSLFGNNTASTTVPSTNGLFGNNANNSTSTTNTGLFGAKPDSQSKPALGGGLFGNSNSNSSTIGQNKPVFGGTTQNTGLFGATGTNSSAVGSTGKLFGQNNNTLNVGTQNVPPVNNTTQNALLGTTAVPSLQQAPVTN

B1: PR10, synthetic poly-proline-arginine 10-mer dipeptide repeat protein with C-terminal lysine and cysteine (peptide)
peptide: PRPRPRPRPRPRPRPRPRPRKC
notes: C9orf72 poly-PR dipeptide repeat, ten repeats, with C-terminal K (solubility) and C (labelling); Unlabelled peptide; The C-terminal KC was added by the authors; also called R-DPR; source: synthetic peptide (Genscript; 21st Century Biochemicals)
On to B1, for which the binding result in experiment [1] was “binds”.

B2: AF488-labeled GR10 (peptide)
peptide: GRGRGRGRGRGRGRGRGRGRKC(Alexa Fluor 488 C5‑maleimide)
notes: C9orf72 poly-GR dipeptide repeat, ten repeats, with C-terminal K and C; also called AF488-GR10; AF488-labeled R-DPR; source: synthetic peptide (Genscript)
Consider B2, for which the “halo intensity (rim vs. background) against control beads” value in experiment [2] was about 2 fold. Moreover, the binding result in experiment [3] and in experiment [4] was “binds” throughout.

B3: AF488-labeled PR10 (peptide)
peptide: PRPRPRPRPRPRPRPRPRPRKC(Alexa Fluor 488 C5‑maleimide)
notes: C9orf72 poly-PR dipeptide repeat, ten repeats, with C-terminal K and C; also called AF488-PR10; AF488-labeled R-DPR; source: synthetic peptide (Genscript)
For B3, the “halo intensity (rim vs. background) against control beads” value in experiment [2] is about 2 fold. Besides, the binding result in experiment [3] and in experiment [4] was “binds” in each case.

B4: GR10, synthetic poly-glycine-arginine 10-mer dipeptide repeat protein with C-terminal lysine and cysteine (peptide)
peptide: GRGRGRGRGRGRGRGRGRGRKC
notes: C9orf72 poly-GR dipeptide repeat, ten repeats, with C-terminal K (solubility) and C (labelling); Unlabelled peptide; The C-terminal KC was added by the authors; also called poly-GR; R-DPR; source: synthetic peptide (Genscript; 21st Century Biochemicals)
As to B4, the binding result in experiment [1] was “binds”.
